In the NTF2 design screens of Basanta et al. (2020):

Test: protease stability score; higher = more stable; yeast display proteolysis, trypsin and chymotrypsin;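 note: relative to predicted unfolded state with 0 unfolded-like and 1 meaning tenfold more protease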

First: DEQERLMRKLAEIIVEAIITGDWRSLAELFDPDVRIDINGRELIGRETWVTWLQEEYKRFKNQRIELHIRDVDVQGDYSHIDGHSRIVIGDFVFTTEIHTEIVIIDGRVHSMHHHVK
Second: DEDKEYLREVLEVLKHMWDTGDERELSKLADPHTRVEINGVKFIGMEEFVRIMQELTKRADHMENRVERNIYQGDYVLVRTRLILKIGEKDFEREVDIFVRKFNGRWLIEELKFH
The protease stability score of the first is lower: 1.18 for the first, 1.37 for the second.

Compared with “SEDIEHVEEALEMFRETLITGDEEIIRRLIDPHVRIIINGREYHGREAMDHFMKRFDVIHNLHITHWEDINGRMHVHGRIEGNIDGKTDVIETRILVVKVDGQWWFETIRIG”, “DEEEEEMHRRARIFLELWMTGNEEVFNTLFDPNVRLHMNIGEKTHDFVGRETVHEVNRRWLEHIRIEDFKVREIRVQGDYATSDTRIVGIFDGRRIDIDVKIHILIVDGRLKEVELRFD” is lower in protease stability score: 2.27 for the first, 2.1 for the second.

Compared with “SEIHDIARKMMNIVRRLLHTGDEDKWLDLADPDVRIHINGRDFIGRELWVQIYRELGVDHLDLKIERVEIVDGVIILHGTLDIHYGDKTHEIEINIFIRKVNGRWRLKLEHHK”, “DEDHHEAEEWADLITHFLKTGDEKFLRDLADPNTRFKYGDFHIHGREQLTNFLRHYVERVKGIRSELKDKHVDVQGEKVRVELDLVLRIGDKTIHITIIIINLKVDGKWYVHTLVVEHR” is lower in protease stability score: 1.71 for the first, 1.18 for the second.

First: SERHDHAEHVLRLWEHFWKTGDETNLSRLLDPSVRWVIGDKVYHGMETVSHNLSRHYLRADHVEESVHRLNFQGNKVEMDGRIILNVNGVQIDKRSHIELISFNGKIKELDLHIT
Second: DEEEKEAYIWLELLLEHERTGNEEEIMHLADPHTRLQFNGVESHGRERFFEHVRHKIRHMRVEIRIRNFEFQGEYAHLHGEDILRIGDKTERIDMRFVLLVVNGRIKSIHIHVH
The protease stability score of the first is lower: 0.371 for the first, 0.694 for the second.

First: DEDQEEMYKALNHLLTLLKTGDEHVLKRLIDPHVRVEIDGKDRHGMSFLLEIIKEELIRIDHIKDFRIHHVEMVGDKAENHVKLIGEWNGKEFRLRMHVYSWKFDGKWIMKSIKIE
Second: DKEEHDMKRLADLMKRIFETGDWEEFWSLVDPNVRLHWIVNGREYEVIGRENASEMIEITLELLGVDHVEIHDIDVQGDKVHMKTRSIVNGREIDDNYHYIIVDGRLRRVEIKLK
The protease stability score of the first is lower: 1.75 for the first, 1.81 for the second.

Compared with “DEETRDIIHILKLLWDAIRTGDEEAIRRLLDPDMRIQVGDKEIHGREEFLKEISHWRYDLESFHIKHVDVINGVAIIHLHIVGRFHYDGRTYHDSYEEDVFIFKVNGRWHFHQIKYR”, “TESEKSAHEFLELFEKSIVTGDEDNLDKMADPNVQTIINGREFHGREEMVKAFREIWNIMGVKHIEIRLKQIDFQGEKISVDSRLHIDVNGKRIDHSMTIIFRKINGRWVLESINRD” is lower in protease stability score: 1.84 for the first, 1.34 for the second.

Compared with “DEQQEDAEHATELLLRLLETGDWSTFEKLMDPHVRVDIGDKHLHGREMSSHFIKELVERYPNLRISFKDMRVQGEFIHVIGEVNFNGQRFHSEWVVLKVDGRWTINSVRIE”, “DEIHEDFDRFLEEYLESLRTGDWKKVEELHDPNTRVDIGDKHVIGMDLLAHLETKDFIKRGARVDMHVRRFEIQGNKIIIHGELRIHYGDKHVRINIHLDIRKINGKWIIRHEEIR” is lower in protease stability score: 1.28 for the first, 1.13 for the second.

Compared with “DEEEDKLRKFADHFWHLRLTGDFDIWEHLADPDTKENQGEYSNIGREHISEYNLRETRKFKNIRMHIRRKTIQGDKIKIDGVLIFNGVEIEVILILIVINGRIREVRVHIE”, “SEQEESRRWWLEELLTFLVTGDENRLKELLDPDVRVVVNGKHLHGMEAFEEYLRQIDHVDSHKVTDVKVQGNKIIVHTRAKINVDGRHVETELIFIVHKIDGKWKLHSFESR” is higher in protease stability score: 1.6 for the first, 1.69 for the second.

Going from “DEDEEEYRRMHEILDDALETGDEHTISRMADPHVRNEINGVKLHGREIWFEYMKRLLDHLGVDNIKIKIRLRHIDRQGDKVLSETRLHVYFNGVEERRRTSQVWLKIDGQWHLHHVSVE” to “SEEEEMLHHLSERMTRALRTGDWKTLFELLDPNVRYEQGDKELHGREEMVKHIRHAMERVKNIRIEFTHIDTRLIDGRIHVHIDGRDEFNGVRFKKHIIVHIDKIDGKWFTDNFRLIYE”, the protease stability score rises from 0.869 to 1.15.

Going from “DELTEELRHLAHLMIVSLLTGDPSVFQRYLDPNTKSVVNGKNIHGMEEFDKIILEELKRVDHLEIELKRIDAFDGVTHIDGKLKLRIGDKTVETRMEVNIFTINGKVKSIEISRQ” to “DERREQTRHWINMFTHAMRTGDEHTFKELLDPHVRVKDEHEEDHGRDKAVELFSRVDVFHDIKLRDIDVQGNYVTIEVELLGEIDGKRTTHDLHIITYKINGRWILKSVSIR”, the protease stability score falls from 1.33 to 1.06.

First: SEEERIMEEVSNLILDILYTGDWRRFLKLADPRTRSEINGVELIGMENHFKMWEHWRIKHIDMHSHESQGDKAIAHTRHRGEINGRERDVDTNLFVLVVNGRLKQIRLEFV
Second: SELEHQVRKFVEIYVEAMRTGDEDVLRELADPHVRVVIGDKELHGWEEVVHKLRELRLEEIRVDRVRVIGDYVYVDGHSVWTYGDKRIEQRDIFTIRKVNGRWVLHDVILR
The protease stability score of the first is lower: 1.25 for the first, 1.99 for the second.

Compared with “SEEEHEIRRAVEHWYRSLHTGDEEESIDLVDPHTITIVNGREVHGRHLMYEIMRKFKNAKIEFEITHHEVVNGRADVNMRLTVHIGDKTYETIIHLHTEKVNGRWTVRHWEVK”, “SEWEKDLELALRFVMHAFTTGNWEDLLKFFDPDVRIEVGDKEIHGRHVFFEFLEKLGVKHLRLEIELNHFEIQGDKIHEHGIYRFTYHYNGRVEKKEHDTRVHVTKINGRWYLTHQRVD” is lower in protease stability score: 1.46 for the first, 0.668 for the second.

Going from “DEKRKLAEEIMRLLLHAYKTGDEELIHKLADPDTRVIINGVDLHGWEEMNRHLEEIIRQFDHWDLKIRDFRIQGDKYHIHGHLIHIQGDKHIRHDVNFHIVFVNGRQTSNHIDIH” to “SERHELVVRIVRLWIRMIRTGNEELYMRLADPHVKLDVNGREMHGRERSTEMWSELRIRHLHTEHIEVAENRFVVHGRLVTEFNGKEHDVKVVIHVEIVDGRIKEEEYHIL”, the protease stability score falls from 1.41 to 1.29.

Going from “DEDEQKHREAAHLMLEMILTGDFEYFRHLLDPDVRLEINGKEIHGREEVYRHLLEWWQRIKNVRIKFKTMRIHIFDGVLFIHLDLEIEIGDKSIKTEILIVSIKIDGRWLLNSLHIHDR” to “SEEEETLEELTRRLLHTWVTGDEQTLKDLADPDVRLIFNGQTYHGREQAERIIKELLDKLGVDRVHSEPRRFNIINGRIRMHVRIHYGDKEYIVHIIATKIDGRWTIKNVIFD”, the protease stability score rises from 1.04 to 1.24.

First: SEDVEFIVRFIERFWHLLLTGNEEEFEKLLDPHVRIEINGVNLVGREEVTDWFKHIRIDDMRMIFRHSSVVDGRVNVIGALRRDGHINGQRVTEERDTRLHLYKVNGQWFLTEIELH
Second: DEEEEDIDFLIHLLVKTIKTGDEHIFRRLMDPHVRMHAEGRELHGREVVVERWAKIMRELRITHIEVTHKDVVDGQVELHMRIKFRVGDKEKETRVELHAEKIDGRWVIRSIHIL
The protease stability score of the first is lower: 1.5 for the first, 1.75 for the second.

First: NEDEEEARRWLEFFIKLYETGDEHMLEKMIDPDTRSYIDGKEFVGREEIRKLLRHLRIEHIHVKRFRAVNGKIDFDTHIVGEFNGRRKNTDVHIRATKIDGQWYLHEVDWK
Second: DDHKKLVDEMIRIVLEELKTGNEETFNKLADPNVKVEWNGVDNHGREEVEEWWREYREVLGVDVIHIELKHVDPQGDKARIDGIIVETQGEKHHSFRAHIIIVVVNGRMHSIHERRR
The protease stability score of the first is higher: 1.64 for the first, 0.881 for the second.

Going from “EEDEKTAEEMMHIWIKYLMTGNEERLYKLVDPNARIEFNGRTDHGRESFTKFLRELGIKHSHIEEIRWDVQGEKVILTLHGRLDVNGVDRSNEILIIAEKVNGRWRVESVHLHLR” to “DEDHRDMEEFMRIFIDSLKTGDEESLARMLDPNARTKVNGVDFHGRESALEVLRRLWEEFGVDHMELKSREVEVQGNKVHIHLVVTLIQGDKHIHVRYHINTIKVDGRWLLHEINVEIR”, the protease stability score rises from 1.27 to 1.36.

First: HEEEEHSIRILEEWWRALLTGDEDRLKELMDPHVLLLSDVGDKNHIHIGREEAFRFWHEFVRQVKNMTLRIDQVHVQGDKVHLRGTLLINGRERDIRIDILIINGKVREVRIKII
Second: DEEESRIEKVNRRWLRAYATGDEDTLNHLIDPRVRMDIDGVDLHGREEFEEWLRRIDVIRTFELKFMHIQGEKVNNDVQFDTRIDGQNRSVRNKLIIEKVDGKWVVKTIHFI
The protease stability score of the first is higher: 2.45 for the first, 0.228 for the second.

Going from “DELKRYLEELVRRVLQATLTGDEDHFSHLADPTTRLILEDEDHHVENHGREDVRRFMEEHFRRVDHWHISLRRLHPVGNKMHSTGTLRVTFDGVKVDVEVRNHFVMVDGRIKFWKIEFI” to “DERDEAEKVLMKILLDNHHTGDEESLERLIDPNAKIIYGDKDYVGWELMIEWVRHARVHRVEIKDSRVQGDKVNLDGHEDGNINGKRRRTNVIVYLLKINGRWFFHSIQID”, the protease stability score rises from 1.23 to 2.17.

Compared with “SEEEEDRRIAVEEMLRYWHTGDEEDLNRLFDPNVRADFNGKDLVGREHMKEHYERLGYDKFDVRVKDVRVIGDKVEMDGHLRFDGVERDLHIFVIKVNGRWLVKHTEYR”, “SEEREEFEHWAKLVVHLLLTGNWEDFVKLLDPDTRFRDEDEETVGREEVEKAVNRLLDRVDHIKSVHIRHLDVINGRAFMHGQLVGHVDGRETHTEVRIKLVVVNGRIKSLQIDYK” is higher in protease stability score: 0.904 for the first, 1.99 for the second.

Going from “DEDREDVKKYIEDLFHHLETGDFKEIEKNFDPNVRIFIDGRTIHGREEMVRWAEEMRYKLHEVRLHEVETQGEKIHIDLEIDIEIRIGDKRRRIRTRVIIFARKINGRWYVHQTDFR” to “SEEEESERKVLHKFTEAIRTGDEHTLENLIDPNVKIDAENRSHHGMEDWLKWLMELRRRADHIDFRIHSIHTQGDKLHVHSEIIVVQGDKHIHIEISMIINKVNGRWHIHHIELR”, the protease stability score falls from 2.71 to 1.29.

Compared with “SDLERHISEVFKDIIEMEETGDEEELDKLADPNVRIDIDGVELIGRESLRRWVESVVDQIKGIKKHIVIRHLRVFNGRADSDGELRIHINGKTIVRKVRIHITVVNGRLKEMQFRTE”, “DEKDELMERIARLMMEYLDTGDEENLNKLADPNVKIDIRIGDKVIDDHGMENLLHRLRHIRSNLRVHNFHAQGDFVKIDTRVTFHVNGQDIHHTVEVRLFIVNGKIHRIEFIFR” is higher in protease stability score: 1.19 for the first, 2.6 for the second.

First: DEEEESTKRVAKVLHHTNRTGDEKTMNEMLDPNAKQDYNGRINIGWERILEVLREWKDRLGLTRIELHIHDFDIQGDKARIDTTVDFNGVEFKLIIYVRKIDGKWVLERIEVR
Second: DEDHRDAIFILRLFLHATETGDEDSLETLMDPHVKLEINGVRIHGRETTYILMRHWRFRIEHLEIRNFDVFNGRLELIGHRHTTINIDGREERHTVRLEVHIWKINGQWLVQHIHIH
The protease stability score of the first is lower: 0.368 for the first, 2.91 for the second.

Compared with “DEEEKEDHKMLHDFIHLWLTGDEEDWSHLADPRTRLILIQGDKVIDRHGMELASEELRRILEEMRVDDFKVEHVEVINGKSKVHGKTDVTFNGKREIIDIHIELHVVNGRMKTVKMVWI”, “DEEEEIAHEMVRELVKVLETGDEEIWERLMDPNDRIHIGDKNLVGMDETRKWINEFMERIDHIRVRVRSIHPVDGRANLDTEITTHYNGRTTTYKVLLIVVKVNGRWVLESMHIK” is higher in protease stability score: 0.927 for the first, 1.93 for the second.

First: DELKKILDEYIEDHLRAVHTGDEDRVKHQIDPHVRIDVNGVELIGMEDWKKFLDILGVDNIQVDRYEIKDYHLVGDKATLHEHRDVKYNGVRSRHNINFVVQKIDGKWYFTEYQTE
Second: DEIERLLKEVMRIFYENFQTGDEESLKELADPNVRYQIGDKSDHGREHLWRVQHEVHRRMGIKHTHLLIKSVEIVDGVAVIHGSLRLDFDGRHIEWHLHLRLKLIDGKIKEVEHELV
The protease stability score of the first is lower: 0.399 for the first, 1.36 for the second.
